Source: patent US20090076249A1 (published 2009)
Blank lines part the entries; values can stand above or below the binder they belong to.

Assays:
Assay in all cases: cell-based or functional assay
human CD38 [1] = biological target: T1, human CD38 (human, UniProt P28907 1-300)
human CD38 [2] = biological target: T1, human CD38; remark: listed apart in the source
human CD38 [3] = biological target: T1, human CD38; remark: listed apart in the source
human CD38 [4] = biological target: T1, human CD38; remark: listed apart in the source

- EC50 of CDC (PI-positive cells), CD38-CHO cells (human CD38 [1]): 0.24 µg/mL
- EC50 of CDC (PI-positive cells), Daudi-luc cells (human CD38 [1]): > 90 µg/mL
- EC50 of ADCC (51Cr release), Daudi-luc target cells (human CD38 [2]): 0.0097 µg/mL
- EC50 of ADCC (51Cr release), fresh MM tumor cells (human CD38 [2]): 0.056 µg/mL
B1: -024 (antibody, V domains shown)
VH: EVQLVQSGAEVKKPGESLKISCKGSGYSFSNYWIGWVRQMPGKGLEWMGIIYPHDSDARYSPSFQGQVTFSADKSISTAYLQWSSLKASDTAMYYCARHVGWGSRYWYFDLWGRGTLVTVSS
VL: EIVLTQSPATLSLSPGERATLSCRASQSVSSYLAWYQQKPGQAPGLLIYDASNRASGIPARFSGSGSGTDFTLTISSLEPEDFAVYYCQQRSNWPLTFGGGTKVEIK

- EC50 of CDC, CHO-CD38 cells (n = 2) (human CD38 [3]): 4.5 µg/mL
- EC50 of CDC (PI-positive cells), CD38-CHO cells (human CD38 [1]): 3.14 µg/mL
- EC50 of CDC (PI-positive cells), Daudi-luc cells (human CD38 [1]): > 90 µg/mL
- EC50 of ADCC (51Cr release), Daudi-luc target cells (human CD38 [2]): 0.009 µg/mL
- EC50 of ADCC (51Cr release), fresh MM tumor cells (human CD38 [2]): 0.027 µg/mL
- Log EC50 of ADCC, Daudi target cells (n=5) (human CD38 [4]): 1.17
B2: -003 (antibody, V domains shown)
VH: not shown
VL: DIQMTQSPSSLSASVGDRVTITCRASQGISSWLAWYQQKPEKAPKSLIYAASSLQSGVPSRFSGSGSGTDFTLTISSLQPEDFATYYCQQYNSYPRTFGQGTKVEIK
